In the assay the target is monkey BCMA-MMH (monkey BCMA with C-terminal myc-myc-hexahistidine tag) (monkey). The assay is described as follows: SPR Biacore, 25 C, mAb captured via anti-hFc.
monkey BCMA-MMH (monkey BCMA with C-terminal myc-myc-hexahistidine tag) (monkey), sequence (chain, as listed by the source limits assumed): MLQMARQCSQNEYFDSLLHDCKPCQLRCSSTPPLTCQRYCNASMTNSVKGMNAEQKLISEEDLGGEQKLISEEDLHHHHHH

B1: mAb16747 (REGN4515) (antibody, V domains shown)
VH: QVQLVESGGGLVKPGGSLRLSCAASGFTFSDYYISWIRQAPGKGLEWVSYISSSGSSIKYADSVKGRFTISRDNAKNSLYLQMNSLRAEDTAVYYCAREGGNYGMDVWGQGTTVTVSS
VL: DIQMTQSPSSVSASVGDRVTITCRASQGINNWLVWYQQKPGKAPKLLIYAATSLQSGVPSRFSGSGSGTDFTLTISSLQPEDFATYYCQQANSFPPTFGQGTKLEIK
B1: the 90 nM mfBCMA.mmh Bind (RU) amounted to 1.9 RU.

B2: mAb16732 (REGN4514) (antibody, V domains shown)
VH: EVQLVESGGGLVQPGRSLRLSCAASGFTFDDYAMHWVRQAPGKGLEWVSGISWNSGNMGYADSVKGRFTISRDNAKNSLFLQMHSLRAEDTAFYYCAKVRLTAFDFWGQGTLVTVSS
VL: DIQMTQSPSSLSASVGDRVTITCRTSQSIGNYLNWFQQKPGKAPKLLIYTASSLQNGVPSRFTGSGSGTDFTLTISSLQPEDFVIYYCQQSFSTPYTFGQGTKLEIK
The molecule B2 returned a 90 nM mfBCMA.mmh Bind (RU) of 1.1 RU.

(Values after patent publication US20210206865A1.)
